Source: US20250255816A1, “POLYSULFIDE MICROPARTICLES AND USES THEREOF” (Vanderbilt University, priority 2022, published 2025)

Assays:
[1] = Retinal EPO levels by ELISA in mouse microbead occlusion model (MOM) of glaucoma; parameters: species or system C57/B16 mice; details: intravitreal injection, 6 weeks post-MP injection, ELISA of retinal tissue ex vivo
Protocol: (§1) Poly(propylene sulfide-co-ethylene sulfide) (PPSES) was synthesized using ring opening polymerization with an equimolar feed of each monomer. EPO-loaded MPs were formulated by first producing EPO-loaded dextran nanoparticles and loading these into PPSES MPs. The S/O/W technique was used to load EPO. To establish the microbead occlusion model (MOM, FIG. 10) of glaucoma, polystyrene beads were injected into the anterior chamber of C57/B16 mice. Saline-injected mice served as healthy controls. After 1 week, phosphate buffered saline (PBS)-free EPO, blank MPs, or EPO-loaded MPs were injected intravitreally. At 6 weeks post-MP injection, electroretinograms (ERGs) and visual evoked potential (VEP) tests were performed intravitally. Retinal tissue was evaluated ex vivo for EPO and ROS levels using ELISA and Amplex Red dye, respectively.

[2] = system: retinal reactive oxygen species (ROS); assay: Retinal ROS levels by Amplex Red dye in mouse MOM model of glaucoma; parameters: species or system C57/B16 mice; details: intravitreal injection, 6 weeks post-MP injection, ex vivo
Protocol: as §1

[3] = free protein, intravitreal; cited from earlier work

## Erythropoietin [EPO]
[1]
  retinal EPO levels (sustained EPO release): not different from PBS animals
[2]
  retinal ROS levels: Both groups outperformed free EPO
[3]
  half-life intravitreally: ~72 h
